In patent US20190062398A1 (published 2019):
Changes are numbered by the printed parent chain.

B1: T4 (TCR, V domains shown)
Valpha: KQEVTQIPAALSVPEGENLVLNCSFTDSAIYNLQWFRQDPGKGLTSLLLIQSSQREQTSGRLNASLDKSSGRSTLYIAASQPGDSATYLCAVRETSGSRLTFGEGTQLTVNP
Vbeta: DVKVTQSSRYLVKRTGEKVFLECVQDMDHENMFWYRQDPGLGLRLIYFSYDVKMKEKGDIPEGYSVSREKKERFSLILESASTNQTSMYLCASSFWGRSTDTQYFGPGTRLTVL
B2: T2 (TCR, V domains shown)
Valpha: QKEVEQNSGPLSVPEGAIASLNCTYSDRGSQSFFWYRQYSGKSPELIMSIYSNGDKEDGRFTAQLNKASQYVSLLIRDSQPSDSATYLCAVNVDFNKFYFGSGTKLNVKP
Vbeta: DTEVTQTPKHLVMGMTNKKSLKCEQHMGHRAMYWYKQKAKKPPELMFVYSYEKLSINESVPSRFSPECPNSSLLNLHLHALQPEDSALYLCASSQDWNNEQFFGPGTRLTVL
B3: T5a (TCR, V domains shown)
Valpha: SQQGEEDPQALSIQEGENATMNCSYKTSINNLQWYRQNSGRGLVHLILIRSNEREKHSGRLRVTLDTSKKSSSLLITASRAADTASYFCATVSTDSWGKLQFGAGTQVVVTP
Vbeta: DAGITQSPRHKVTETGTPVTLRCHQTENHRYMYWYRQDPGHGLRLIHYSYGVKDTDKGEVSDGYSVSRSKTEDFLLTLESATSSQTSVYFCAISDSNGINIQYFGAGTRLSVL
B4: T3 (TCR, V domains shown)
Valpha: EDQVTQSPEALRLQEGESSSLNCSYTVSGLRGLFWYRQDPGKGPEFLFTLYSAGEEKEKERLKATLTKKESFLHITAPKPEDSATYLCAVQANRGSTLGRLYFGRGTQLTVWP
Vbeta: DVKVTQSSRYLVKRTGEKVFLECVQDMDHENMFWYRQDPGLGLRLIYFSYDVKMKEKGDIPEGYSVSREKKERFSLILESASTNQTSMYLCASSLWGRLAKNIQYFGAGTRLSVL
B5: T5b (TCR, V domains shown)
Valpha: B3 Valpha
Vbeta: B4 Vbeta with L99A, A100G, N102D, I103T, A108P, S113T
B6: T7 (TCR, V domains shown)
Valpha: QQPVQSPQAVILREGEDAVINCSSSKALYSVHWYRQKHGEAPVFLMILLKGGEQKGHEKISASFNEKKQQSSLYLTASQLSYSGTYFCGTGTDSWGKLQFGAGTQVVVTP
Vbeta: DAGVIQSPRHEVTEMGQEVTLRCKPISGHDYLFWYRQTMMRGLELLIYFNNNVPIDDSGMPEDRFSAKMPNASFSTLKIQPSEPRDSAVYFCASSPGLAGGEQFFGPGTRLTVL

Tests used:
Assay in all cases: cytokine release
[1] = target: T1, Human papillomavirus type 16 E6 protein peptide on HLA-A*02:01 (human)
T1 peptide: TIHDIILECV

[2] = target: T2, Human papillomavirus type 16 E5 protein peptide on HLA-A*02:01 (human)
T2 peptide: YIIFVYIPL

[3] = target: T3, Human papillomavirus type 16 E7 protein peptide on HLA-A*02:01 (human)
T3 peptide: TLGIVCPI

| Binder | binding result [1] | other results |
| --- | --- | --- |
| B1 | recognises | – |
| B2 | – | binding result [2]: recognises |
| B3 | recognises | – |
| B4 | recognises | – |
| B5 | recognises | – |
| B6 | – | binding result [3]: recognises |
